Results reported in paper PMC3752404 (Molecular cell, 2011).
Residue numbers refer to the chain shown, from its start. Names and notes keep the numbering of the source. Values joined by “and” are separate entries in the source; they are usually repeats but may differ in a detail not shown here. Identical values can stand only once.

Experiments:
[1] = target: Swi6 (wild type, tagged: N-terminal 6xHis and C-terminal FLAG) (S. pombe) (UniProt P40381); experiment: equilibrium competition with a fluorescently labeled DNA
[2] = target: MLA methylated (H3Kc9me3) mononucleosome on the 147 bp 601 sequence; experiment: AUC
[3] = target: H3K9 2N(L15) dinucleosome; experiment: native gel or EMSA
[4] = target: H3K9 2N(L47) dinucleosome; experiment: native gel or EMSA
[5] = target: H3Kc9me3 12N(L15) nucleosome array; experiment: native gel or EMSA
[6] = target: H3Kc9me3 12N(L47) nucleosome array; experiment: native gel or EMSA
[7] = target: H3Kc9me3 2N(L15) dinucleosome; experiment: native gel or EMSA
[8] = target: H3Kc9me3 2N(L47) dinucleosome; experiment: native gel or EMSA
[9] = target: MLA methylated (H3Kc9me3) mononucleosome on the 147 bp 601 sequence; experiment: native gel or EMSA
[10] = target: Swi6 chromoshadow domain (WT CSD) (S. pombe)
[11] = target: Swi6 chromoshadow domain (WT CSD) (S. pombe); experiment: ITC
H3K9me3 tail peptide = experiment: fluorescence polarisation
SEC-MALS = target: the molecule itself; experiment: SEC-MALS
SEC-MALS + cross-linking = target: the molecule itself; experiment: SEC-MALS + cross-linking
cross-linking = target: the molecule itself; experiment: cross-linking
SEC = target: the molecule itself; experiment: SEC

With “MLA methylated (H3Kc9me3) mononucleosome on the 147 bp 601 sequence (complex)” the fold specificity over H3K9 nucleosomes [1] was 5 fold.

“Swi6 (wild type, tagged: N-terminal 6xHis and C-terminal FLAG) (from UniProt P40381 1-328) (natural protein)” was tested, and the stoichiometry N [2] was 4, the K1/2 [3] was 156 nM and the K1/2 [4] was 32 nM. For the same molecule, the fold specificity over the H3K9 12N(L15) array (ratio of K1/2) [5] was 25 fold, the fold specificity over the H3K9 12N(L47) array (ratio of K1/2) [6] was 5.4 fold and the K1/2 [7] was 62 nM. For the same molecule, the K1/2 [8] was 12 nM and the fold preference over H3K9 nucleosomes (ratio of K1/2) [9] was 5 fold.

“Swi6 (wild type, untagged) (from UniProt P40381 1-328) (natural protein)” was tested, and the fold increase of affinity on removing the tags (nucleosomes and arrays) was 2.5 fold.

Molecule “Swi6 L315D (from UniProt P40381 1-328) (natural protein)” has a stoichiometry N [2] of 2 and a fold discrimination between methylated and unmethylated arrays [5] of 2 to 3 fold.

In the case of “Swi6 V82E-Y131W (from UniProt P40381 1-328) (natural protein)”, the fold increase of specificity compared to WT Swi6 [5] is reported as 7 fold and the fold specificity over the H3K9 12N(L15) array [5] is reported as 130 fold.

Molecule “Swi6 chromoshadow domain (WT CSD) (domain or fragment)” has a stoichiometry N [10] of 2 and a Kd [11] of under 17 nM.

B1: Swi6 V82E (natural protein, S. pombe, UniProt P40381 1-328, looked up)
chain: MKKGGVRSYRRSSTSKRSVIDDDSEPELPSMTKEAIASHKADSGSSDNEVESDHESKSSSKKLKENAKEEEGGEEEEEDEYEVEKVLKHRMARKGGGYEYLLKWEGYDDPSDNTWSSEADCSGCKQLIEAYWNEHGGRPEPSKRKRTARPKKPEAKEPSPKSRKTDEDKHDKDSNEKIEDVNEKTIKFADKSQEEFNENGPPSGQPNGHIESDNESKSPSQKESNESEDIQIAETPSNVTPKKKPSPEVPKLPDNRELTVKQVENYDSWEDLVSSIDTIERKDDGTLEIYLTWKNGAISHHPSTITNKKCPQKMLQFYESHLTFRENE
In the case of B1, the fold increase of binding (H3K9me3 tail peptide) is reported as 3 fold and the binding result (SEC-MALS) is reported as “binds”.

B2: Swi6 (wild type, tagged: N-terminal 6xHis and C-terminal FLAG) (natural protein, S. pombe, UniProt P40381 1-328, looked up)
chain: B1 chain with E82V
B2 was tested, and the “stoichiometry N” value (SEC-MALS + cross-linking) was 8 and the “stoichiometry N” value (cross-linking) was 2 and > 2.

B3: Swi6 V82E-Y131W (natural protein, S. pombe, UniProt P40381 1-328, looked up)
chain: B1 chain with Y131W
B3 was tested, and the “fold tetramer formation over WT” value (SEC-MALS) was about 3.5 fold and the “stoichiometry N” value (SEC-MALS) was 4 and 8.

B4: Swi6 chromodomain (CD, aa 81-137) (domain or fragment, S. pombe, UniProt P40381 81-137, looked up)
chain: YVVEKVLKHRMARKGGGYEYLLKWEGYDDPSDNTWSSEADCSGCKQLIEAYWNEHGG
For B4, the “stoichiometry N” value (SEC) was 2.

B5: Swi6 Y131W (natural protein, S. pombe, UniProt P40381 1-328, looked up)
chain: B1 chain with E82V, Y131W
With B5 the “fold tetramer formation over WT” value (SEC-MALS) was about 1.6 fold.
